Measured values published in patent US20210040193A1 (BEIJING HANMI PHARMACEUTICAL, published 2021).

Assays:
[1] = target: T1, Recombinant human PD-1 (Beijing Sino Biological Inc., Catalog No. 10377-H08H) (human, UniProt Q15116 25-167); assay: ELISA, human PD-1 coated on the plate, anti-human IgG-HRP detection; control
T1 construct: Bought recombinant protein

[2] = target: T1, Recombinant human PD-1 (Beijing Sino …); assay: ELISA, human PD-1 coated on the plate, anti-human IgG-HRP detection

T1 sequence (Q15116 25-167 limits assumed): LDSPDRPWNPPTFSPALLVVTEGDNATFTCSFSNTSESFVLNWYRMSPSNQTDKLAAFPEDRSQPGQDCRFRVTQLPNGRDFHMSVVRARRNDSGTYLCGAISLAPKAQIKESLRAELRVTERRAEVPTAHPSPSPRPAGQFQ

Row | Binder | binding result [1] | binding result [2]
1 | PD-1 (BJHM) monoclonal antibody (antibody, V domains shown, Control monoclonal antibody; also called anti-human PD-1 antibody PD-1(BJHM)) VH: EVNLVESGGGLVQPGGSLRLSCAASGFTFSSYGMSWVRQAPGKGLEWVASISGGGRYTYYPDSMKGRFTISRDNSKNNLYLQMNSLRAEDTAVYYCVYEYFYTMDYWGQGTLVTVSS VL: DIVLTQSPATLSLSPGERATLSCRASQSISNNLHWYQQKPGQAPRLLIRFASQSISGIPARFSGSGSGTDFTLTISSLEPEDFAVYFCQQSDNWPLTFGGGTKVEIK | binds | –
2 | anti PD-1(BJHM)/VEGF(Bevaci) heterodimeric antibody (bispecific antibody, human IgG1, kappa, N297A) heavy 1: EVNLVESGGGLVQPGGSLRLSCAASGFTFSSYGMSWVRQAPGKGLEWVASISGGGRYTYYPDSMKGRFTISRDNSKNNLYLQMNSLRAEDTAVYYCVYEYFYTMDYWGQGTLVTVSSASTKGPSVFPLAPSSKSTSGGTAALGCLVKDYFPEPVTVSWNSGALTSGVHTFPAVLQSSGLYSLSSVVTVPSSSLGTQTYICNVNHKPSNTKVDKKVEPKSCDKTHTCPPCPAPELLGGPSVFLFPPKPKDTLMISRTPEVTCVVVDVSHEDPEVKFNWYVDGVEVHNAKTKPREEQYASTYRVVSVLTVLHQDWLNGKEYKCKVSNKALPAPIEKTISKAKGQPREPQVYTLPPSRDELTKNQVSLLCLVKGFYPSDIAVEWESNGQPENNYKTTPPVLRSDGSFFLYSKLTVDKSRWQQGNVFSCSVMHEALHNHYTQKSLSLSPGK light 1: DIVLTQSPATLSLSPGERATLSCRASQSISNNLHWYQQKPGQAPRLLIRFASQSISGIPARFSGSGSGTDFTLTISSLEPEDFAVYFCQQSDNWPLTFGGGTKVEIKRTVAAPSVFIFPPSDEQLKSGTASVVCLLNNFYPREAKVQWKVDNALQSGNSQESVTEQDSKDSTYSLSSTLTLSKADYEKHKVYACEVTHQGLSSPVTKSFNRGEC heavy 2: EVQLVESGGGLVQPGGSLRLSCAASGYTFTNYGMNWVRQAPGKGLEWVGWINTYTGEPTYAADFKRRFTFSLDTSKSTAYLQMNSLRAEDTAVYYCAKYPHYYGSSHWYFDVWGQGTLVTVSSASTKGPSVFPLAPSSKSTSGGTAALGCLVKDYFPEPVTVSWNSGALTSGVHTFPAVLQSSGLYSLSSVVTVPSSSLGTQTYICNVNHKPSNTKVDKKVEPKSCDKTHTCPPCPAPELLGGPSVFLFPPKPKDTLMISRTPEVTCVVVDVSHEDPEVKFNWYVDGVEVHNAKTKPREEQYASTYRVVSVLTVLHQDWLNGKEYKCKVSNKALPAPIEKTISKAKGQPREPQVYTEPPSRDELTKNQVSLTCLVKGFYPSDIAVEWESNGQPENNYKTTPPVLDSDGSFFLLSVLTVDKSRWQQGNVFSCSVMHEALHNHYTQKSLSLSPGK light 2: not shown | – | binds
3 | anti-PD-1 (Pembro)/VEGF (G631) heterodimeric antibody (bispecific antibody, human IgG1, kappa, N297A, Heterodimer of two half antibodies; it is not spelled out for this molecule; also called anti-PD-1 (Pembro)/VEGF (G631) heterodimer antibody) heavy 1: QVQLVQSGVEVKKPGASVKVSCKASGYTFTNYYMYWVRQAPGQGLEWMGGINPSNGGTNFNEKFKNRVTLTTDSSTTTAYMELKSLQFDDTAVYYCARRDYRFDMGFDYWGQGTTVTVSSASTKGPSVFPLAPSSKSTSGGTAALGCLVKDYFPEPVTVSWNSGALTSGVHTFPAVLQSSGLYSLSSVVTVPSSSLGTQTYICNVNHKPSNTKVDKKVEPKSCDKTHTCPPCPAPELLGGPSVFLFPPKPKDTLMISRTPEVTCVVVDVSHEDPEVKFNWYVDGVEVHNAKTKPREEQYASTYRVVSVLTVLHQDWLNGKEYKCKVSNKALPAPIEKTISKAKGQPREPQVYTLPPSRDELTKNQVSLLCLVKGFYPSDIAVEWESNGQPENNYKTTPPVLRSDGSFFLYSKLTVDKSRWQQGNVFSCSVMHEALHNHYTQKSLSLSPGK light 1: EIVLTQSPATLSLSPGERATLSCRASKGVSTSGYSYLHWYQQKPGQAPRLLIYLASYLESGVPARFSGSGSGTDFTLTISSLEPEDFAVYYCQHSRDLPLTFGGGTKVEIKRTVAAPSVFIFPPSDEQLKSGTASVVCLLNNFYPREAKVQWKVDNALQSGNSQESVTEQDSKDSTYSLSSTLTLSKADYEKHKVYACEVTHQGLSSPVTKSFNRGEC heavy 2: EVQLVESGGGLVQPGGSLRLSCAASGFTISDYWIHWVRQAPGKGLEWVAGITPAGGYTYYADSVKGRFTISADTSKNTAYLQMNSLRAEDTAVYYCARFVFFLPYAMDYWGQGTLVTVSSASTKGPSVFPLAPSSKSTSGGTAALGCLVKDYFPEPVTVSWNSGALTSGVHTFPAVLQSSGLYSLSSVVTVPSSSLGTQTYICNVNHKPSNTKVDKKVEPKSCDKTHTCPPCPAPELLGGPSVFLFPPKPKDTLMISRTPEVTCVVVDVSHEDPEVKFNWYVDGVEVHNAKTKPREEQYASTYRVVSVLTVLHQDWLNGKEYKCKVSNKALPAPIEKTISKAKGQPREPQVYTEPPSRDELTKNQVSLTCLVKGFYPSDIAVEWESNGQPENNYKTTPPVLDSDGSFFLLSVLTVDKSRWQQGNVFSCSVMHEALHNHYTQKSLSLSPGK light 2: not shown | – | binds
4 | anti-PD-1 (BJHM)/VEGF (G631) heterodimeric antibody (bispecific antibody, human IgG1, kappa, N297A) heavy 1: EVNLVESGGGLVQPGGSLRLSCAASGFTFSSYGMSWVRQAPGKGLEWVASISGGGRYTYYPDSMKGRFTISRDNSKNNLYLQMNSLRAEDTAVYYCVYEYFYTMDYWGQGTLVTVSSASTKGPSVFPLAPSSKSTSGGTAALGCLVKDYFPEPVTVSWNSGALTSGVHTFPAVLQSSGLYSLSSVVTVPSSSLGTQTYICNVNHKPSNTKVDKKVEPKSCDKTHTCPPCPAPELLGGPSVFLFPPKPKDTLMISRTPEVTCVVVDVSHEDPEVKFNWYVDGVEVHNAKTKPREEQYASTYRVVSVLTVLHQDWLNGKEYKCKVSNKALPAPIEKTISKAKGQPREPQVYTLPPSRDELTKNQVSLLCLVKGFYPSDIAVEWESNGQPENNYKTTPPVLRSDGSFFLYSKLTVDKSRWQQGNVFSCSVMHEALHNHYTQKSLSLSPGK light 1: DIVLTQSPATLSLSPGERATLSCRASQSISNNLHWYQQKPGQAPRLLIRFASQSISGIPARFSGSGSGTDFTLTISSLEPEDFAVYFCQQSDNWPLTFGGGTKVEIKRTVAAPSVFIFPPSDEQLKSGTASVVCLLNNFYPREAKVQWKVDNALQSGNSQESVTEQDSKDSTYSLSSTLTLSKADYEKHKVYACEVTHQGLSSPVTKSFNRGEC heavy 2: EVQLVESGGGLVQPGGSLRLSCAASGFTISDYWIHWVRQAPGKGLEWVAGITPAGGYTYYADSVKGRFTISADTSKNTAYLQMNSLRAEDTAVYYCARFVFFLPYAMDYWGQGTLVTVSSASTKGPSVFPLAPSSKSTSGGTAALGCLVKDYFPEPVTVSWNSGALTSGVHTFPAVLQSSGLYSLSSVVTVPSSSLGTQTYICNVNHKPSNTKVDKKVEPKSCDKTHTCPPCPAPELLGGPSVFLFPPKPKDTLMISRTPEVTCVVVDVSHEDPEVKFNWYVDGVEVHNAKTKPREEQYASTYRVVSVLTVLHQDWLNGKEYKCKVSNKALPAPIEKTISKAKGQPREPQVYTEPPSRDELTKNQVSLTCLVKGFYPSDIAVEWESNGQPENNYKTTPPVLDSDGSFFLLSVLTVDKSRWQQGNVFSCSVMHEALHNHYTQKSLSLSPGK light 2: not shown | – | binds
